Reference: patent publication US20240165140A1, “MEDICATION FOR INHIBITING DNA-PKCS” (TSINGHUA UNIVERSITY, priority 2017, published 2024)
“Also recorded” adds a separate entry of the source.

What was measured:
[1] = test system: DNA-PKcs signaling pathway; test: Immunoblotting of DNA-PKcs signaling pathway activation induced by chemotherapeutic agent; format: cell-based; conditions: H1299 and A549 cells; single agent 1 h (Etoposide 10 μM, Endostatin 10 μg/ml, NU7026 10 μM); compared with control group
Description: Tumor cells (including non-small cell lung cancer H1299 and A549 cells) were divided into six treatment groups.
Tumor cells (including H1299 and A549 cells) were divided into six treatment groups.

[2] = test system: PCNA and DNA-PKcs protein in H1299-P53 and A549-NC tumor tissues; test: Immunofluorescence of PCNA and DNA-PKcs in tumor tissue, mouse tumor model with normal P53 function; format: in vivo, nude mice; conditions: H1299-P53 and A549-NC tumors of Example 12; quantitative immunofluorescence
Description: Tumor-bearing nude mice were randomly divided into four groups with 6 to 8 animals for each group, and different drug treatments were performed. […] Tumor volume was measured every other day. 2 to 4 weeks after administration, the mice were sacrificed and the tumor tissue was removed for further use.
The tumor tissue removed in Example 12 was fixed and embedded, and then sectioned. PCNA (a marker molecule indicating the vigorous proliferation status of tumor cells) and DNA-PKcs protein in tumor tissues were stained by immunofluorescence technique, and were observed and imaged with a laser confocal microscope (Nikon A1). The experimental results are shown in FIG. 14A-14D, in which blue represents the nucleus of DAPI-stained cells, green represents the DNA-PKcs protein, and red represents the PCNA protein. Taking the H1299-NC tumor tissue shown in FIG. 14A as an example, the first column on the left represents DNA-PKcs single staining, and the green area represents the DNA-PKcs protein expression level. The second column on the left represents the results of DNA-PKcs (green) merged with nucleus (blue), and the overlapping part is shown in cyan. The third column on the left represents PCNA single staining, and the red area represents the PCNA protein expression level, indicating the strength of tumor cell proliferation. […]

B1: Endostatin: recombinant natural human endostatin expressed by E. coli, from Protgen, SEQ ID NO: 2 (protein)
chain: MHSHRDFQPVLHLVALNSPLSGGMRGIRGADFQCFQQARAVGLAGTFRAFLSSRLQDLYSIVRRADRAAVPIVNLKDELLFPSWEALFSGSEGPLKPGARIFSFDGKDVLRHPTWPQKSVWHGSDPNGRRLTESYCETWRTEAPSATGQASSLLGGRLLGQSAASCHHAYIVLCIENSFMTASK
modifications: The amino acid sequence of natural human endostatin
[1]
  Level of the DNA-PKcs signaling pathway (p-DNA-PKcs (S2056), p-AKT (S473), p-P53 (S15)): did not affect the level of the DNA-PKcs signaling pathway
[2]
  Tumor cell proliferation (PCNA) and protein level of DNA-PKcs in tumor tissue: could reduce the proliferation of tumor cells and reduce the protein level of DNA-PKcs; also recorded: did not enhance the inhibitory effect of Etoposide on tumor proliferation and the effect of Etoposide on the protein levels of DNA-PKcs
